Reference: the supplement of paper PMC10567573

B1: RHOBTB3 (parent)
chain: QLQSMPSRELASMNLDIVDLLKKA

Variants of: B1
Assay: protein stability index of a GFP-peptide fusion (GPS, HEK-293T) (PSI 1-6); higher = more stable
Conditions: c terminus: a fixed tail appended
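Further: lentivirally expressed fusions sorted by FACS into six bins by GFP to DsRed ratio, PSI derived from sequencing read proportions per bin multiplied by bin number.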

Protein stability index, by site and new letter:
L15: G 3.99 | H 3.98 | I 3.66 | K 4.45 | M 3.86 | N 3.45 | P 4.48 | Q 3.72 | R 3.58 | S 3.79 | T 4.17 | V 3.35 | W 2.88 | Y 3.87
D16: A 2.15 | C 3.25 | E 3.63 | F 2.09 | G 3.63 | H 2.76 | I 2.67 | K 2.91 | L 2.63 | M 2.53 | N 2.88 | P 2.75 | Q 3.57 | R 2.5 | S 3.23 | T 3.05 | V 2.22 | Y 2.62
I17: A 3.63 | C 3.87 | D 4.23 | F 3.63 | G 3.46 | H 3.94 | K 3.23 | L 3.34 | M 3.39 | N 3.88 | P 3.39 | Q 4.55 | R 3.4 | S 4.37 | T 3.58 | V 3.89 | W 3.45 | Y 3.74
V18: A 4.01 | C 3.69 | D 3.96 | E 4.19 | F 2.39 | G 3.65 | H 3.5 | I 3.28 | K 3.21 | L 3.37 | M 3.41 | N 3.9 | P 3.21 | Q 3.89 | R 2.73 | S 4.08 | T 3.77 | W 2.61 | Y 2.6
D19: A 3 | C 2.96 | E 3.37 | F 2.01 | G 2.52 | H 2.93 | I 1.86 | K 3.08 | L 1.48 | M 2.09 | N 3.15 | P 2.83 | Q 3.58 | R 2.99 | S 3.45 | T 2.85 | V 2.16 | W 2.16 | Y 2.28
L20: A 3.52 | C 3.86 | D 4.68 | E 4.84 | F 3.42 | G 4.62 | H 3.63 | I 3.42 | K 4.33 | M 3.75 | N 3.71 | P 4.31 | Q 3.9 | R 3.94 | S 4.06 | T 3.96 | V 2.9 | W 3.51 | Y 3.95
L21: A 3.47 | C 3.47 | D 4.67 | F 3 | G 3.91 | H 4.33 | I 3.56 | K 3.01 | M 4.02 | N 3.27 | P 3.84 | Q 3.87 | R 3.93 | S 4.12 | T 3.74 | V 4.12 | W 3.35 | Y 2.96
K22: A 3.01 | C 2.76 | D 4.32 | E 4.71 | F 2.29 | G 3.75 | H 3.67 | I 2.32 | L 2.07 | M 2.9 | N 4.23 | P 3.57 | Q 3.93 | R 3.21 | S 3.55 | T 3.74 | V 2.15 | W 2.04 | Y 2.61
K23: A 2.92 | C 2.57 | D 4.03 | E 3.69 | F 2.33 | G 3.16 | H 3.05 | I 2.48 | L 2.58 | M 2.32 | N 3.97 | P 3.22 | Q 3.36 | R 3.52 | S 3.05 | T 3.4 | V 2.81 | W 1.3 | Y 2.71
A24: C 3.14 | D 4.65 | E 4.56 | F 3.41
